These results are taken from article PMC2922993.

For the test, the target named is T1, BRAF-HDAC Complex 80 (BHC80)-PHD finger, Q96BD5.
T1 chain: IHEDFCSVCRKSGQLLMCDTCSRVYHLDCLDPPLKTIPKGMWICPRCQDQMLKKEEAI
Kind of test: ITC. On the technique in general: In ITC the heat of successive injections is recorded.

Usually Kd stands for the constant that tells how readily two partners part at equilibrium. Low values mean a tighter complex, high ones a looser complex. ARTKQTARKSTG (modifications not checked) [unmodified H3 peptide] displayed a Kd of 19.6 µM.
